The labels stand for the following.
B1: M161-C11 (Fab, V domains shown)
VH: EVQLLESGGGLVQPGGSLRLSCAASGFTFSDYAMKWVRQAPGKGLEWVSSISSSGGVTQYADSVKGRFTISRDNSKNTLYLQMNSLRAEDTAVYYCAREEDYSSSWYSRRFDYYYGMDVWGQGTTVTVSS
VL: QSALTQPPSVSVSPGQTASITCSGDKLGDKYVSWYQQRPGQSPVLVIYQDTKRPSGIPERFSGSNSGNTATLTISGTQAVDEADYYCQAWDSSTYVFGGGTKVTVL
notes: Printed HC runs from VH into the start of CH1
B2: M27-E05 (Fab, V domains shown)
VH: EVQLLESGGGLVQPGGSLRLSCAASGFTFSWYLMIWVRQAPGKGLEWVSYIYPSGGFTYYADSVKGRFTISRDNSKNTLYLQMNSLRAEDMAVYYCARTEGPLSWGYGMDVWGQGTTVTVSS
VL: not shown
notes: as for B1
B3: M110-C12 (Fab, V domains shown)
VH: EVQLLESGGGLVQPGGSLRLSCAASGFTFSYYEMDWVRQAPGKGLEWVSGISSSGGHTAYADSVKGRFTISRDNSKNTLYLQMNSLRAEDTATYYCARERRSSSRARYYYGMDVWGQGTTVTVSS
VL: DIQMTQSPLSLSVTPGEPASISCRSSLSLLHSNGYNYLDWYVQRPGQSPQLLMYLSSTRASGVPDRFSGSGSGTDFTLEISRVEAEDVGVYYCMQPLETPPTFGGGTKVEIK
notes: as for B1
B4: M76-D01 (Fab, V domains shown)
VH: EVQLLESGGGLVQPGGSLRLSCAASGFTFSFYAMHWVRQAPGKGLEWVSGIVPSGGRTHYADSVKGRFTISRDNSKNTLYLQMNSLRAEDTAVYYCATDSSGSPNPLFDYWGQGTLVTVSS
VL: DIVMTQTPPSLPVNPGEPASISCRSSQSLSDDGNTYLDWYLQRPGQSPQLLIHTLSYRASGVPDRFSGSGSGTDFTLKISRVEAEDVGVYYCMQGTHWPPTFGQGTKVEIK
notes: Printed HC runs from VH into the start of CH1 (printed end APSPKS)
B5: M160-G12 (Fab, V domains shown)
VH: EVQLLESGGGLVQPGGSLRLSCAASGFTFSHYLMTWVRQAPGKGLEWVSYISPSGGHTIYADSVKGRFTISRDNSKNTLYLQMNSLRAEDTAVYYCARVARGIAARSRTSYFDYWGQGTLVTVSS
VL: DIQMTQSPSFLSASVGDRVTITCRASQGISSYLAWYQQKPGKAPKLLIYAASTLQSGVPSRFSGSGSGTEFTLTISSLQPEDFATYYCQQLNSYPLTFGGGTKVEIK
notes: Printed HC runs from VH into the start of CH1; also called R84-D02 (as IgG)
B6: M146-E12 (Fab, V domains shown)
VH: EVQLLESGGGLVQPGGSLRLSCAASGFTFSRYIMHWVRQAPGKGLEWVSSISPSGGLTSYADSVKGRFTISRDNSKNTLYLQMNSLRAEDTAVYYCAREFENAYHYYYYGMDVWGQGTTVTVSS
VL: DIQMTQSPSSLSASVGDRVTITCRASGDIGNALGWYQQKPGKAPRLLISDASTLQSGVPLRFSGSGSGTEFTLTISSLQPEDFATYYCLQGYNYPRTFGQGTKLEIR
notes: as for B1
B7: M162-A04 (Fab, V domains shown)
VH: EVQLLESGGGLVQPGGSLRLSCAASGFTFSHYIMMWVRQAPGKGLEWVSGIYSSGGITVYADSVKGRFTISRDNSKNTLYLQMNSLRAEDTAVYYCAYRRTGIPRRDAFDIWGQGTMVTVSS
VL: DIQMTQSPSTLSASVGDRVTITCRASQSISSWLAWYQQKPGKAPNLLIYKASTLESGVPSRFSGSGSGTEFTLTISSLQPDDFATYYCQQYNTYWTFGQGTKVEIK
notes: Non-germlined Fab discovered using phage display; Printed HC runs from VH into the start of CH1; also called M162-A4; 559A-M162-A4
B8: M73-D06 (Fab, V domains shown)
VH: EVQLLESGGGLVQPGGSLRLSCAASGFTFSRYEMYWVRQAPGKGLEWVSSISSSGGPTAYADSVKGRFTISRDNSKNTLYLQMNSLRAEDTAMYYCAKGTPKWELLLRSIYIENAFDIWGQGTMVTVSS
VL: QSELTQPPSASETPGQRVTISCSGSSSNIGSNTVSWFQQLPGSAPRLLIYNDHRRPSGVPDRFSGSKSGTSASLVISGLQSQDEADYYCSAWDDSLNGVVFGGGTKLTVL
notes: as for B1
B9: M38-F02 (Fab, V domains shown)
VH: EVQLLESGGGLVQPGGSLRLSCAASGFTFSYYMMVWVRQAPGKGLEWVSYIYSSGGHTVYADSVKGRFTISRDNSKNTLYLQMNSLRAEDTAVYYCARDLFLYDFWSKGAFDIWGQGTMVTVSS
VL: QSVLTQPPSVSVSPGQTASITCSGEKLGDKYVSWYQQKPGQSPSLVICEDSRRPSGIPERFSGSNSGNTATLTISGAQPMDEADYYCQAWDSSTAIFGPGTKVTVL
notes: as for B1
B10: M41-A11 (Fab, V domains shown)
VH: EVQLLESGGGLVQPGGSLRLSCAASGFTFSHYRMSWVRQAPGKGLEWVSSIYPSGGRTVYADSVKGRFTISRDNSKNTLYLQMNSLRAEDTAVYYCAKDKFEWRLLFRGIGNDAFDIWGQGTMVTVSS
VL: QSVLTQPPSVSVSPGQTASITCSGDKLGDKYTSWYQQRPGQSPVLVIYQDIKRPSGIPERFSGSNSGNTATLTISGTQAMDEADYYCQAWDSPNARVFGSGTKVTVL
notes: as for B1
B11: M145-D11 (Fab, V domains shown)
VH: B10 VH
VL: B10 VL
notes: Printed HC runs from VH into the start of CH1; also called 559A-M145-D11; 559A-M0145-D11
B12: M137-E12 (Fab, V domains shown)
VH: EVQLLESGGGLVQPGGSLRLSCAASGFTFSDYRMQWVRQAPGKGLEWVSVIVPSGGNTMYADSVKGRFTISRDNSKNTLYLQMNSLRAEDTAVYYCARGGPGSSIAARRAPTGYYGMDVWGQGTTVTVSS
VL: QSVLIQPPSVSGIPGQRVTISCSGNNSNFGSNTVTWYQQLPGTAPKLLIYSDSRRPSGVPDRFSGSRSDTSASLAISGLQSEDEAEYHCAAWDDSLNGVFGGGTKLTVL
notes: as for B1
B13: M35-G04 (Fab, V domains shown)
VH: EVQLLESGGGLVQPGGSLRLSCAASGFTFSYYHMSWVRQAPGKGLEWVSVISPSGGSTKYADSVKGRFTISRDNSKNTLYLQMNSLRAEDTAVYYCARGGSSDYAWGSYRRPYYFDYWGQGTLVTVSS
VL: DIQMTQSPATLSLSPGERATLSCRASQSVSSYLAWYQQKPGQAPRLLIYDASNRATGIPARFSGSGSGTDFTLTISSLEPEDFAVYYCQQRSNWPRGFTFGPGTKVDIK
notes: Printed HC runs from VH into the start of CH1; also called 559A-M35-G04; 559A-M0035-G04
B14: M145-D01 (Fab, V domains shown)
VH: B13 VH
VL: B13 VL
notes: as for B1
B15: M29-E09 (Fab, V domains shown)
VH: EVQLLESGGGLVQPGGSLRLSCAASGFTFSWYEMGWVRQAPGKGLEWVSSIYSSGGGTMYADSVKGRFTISRDNSKNTLYLQMNSLRAEDTAVYYCARNPQYSGYDRSLSDGAFDIWGQGTMVTVSS
VL: QYELTQPPSVSVSPGQTATITCSGDNLGNKYNSWYQQKPGQSPLLVIYQDTKRPSAIPERFSGSNSGNTATLTISGTQAMDEADYYCQAWDGNVVFGGGTKLTVL
notes: as for B1
B16: M142-H08 (Fab, V domains shown)
VH: EVQLLESGGGLVQPGGSLRLSCAASGFTFSAYSMIWVRQAPGKGLEWVSYIRPSGGRTTYADSVKGRFTISRDNSKNTLYLQMNSLRAEDTAVYYCARGGLLLWFRELKSNYFDYWGQGTLVTVSS
VL: DIQMTQSPSSLSAFVGDRVTITCRASQPIDNYLNWYHQKPGKAPKLLIYAASRLQSGVPSRLSGSGFGTDFTLTISSLQPEDFGNYYCQQSYTVPYTFGGGTKVEIR
notes: as for B1
B17: M152-A12 (Fab, V domains shown)
VH: EVQLLESGGGLVQPGGSLRLSCAASGFTFSPYFMGWVRQAPGKGLEWVSGIGPSGGSTTYADSVKGRFTISRDNSKNTLYLQMNSLRAEDTAVYYCAREGPPYSSGWYRGLRQYHFDYWGQGTLVTVSS
VL: DIQMTQSPSSLSASVGDRVTITCRASQSISSYLSWYQQRPGKAPNLLIYAASSLQSGVPSRFSGSGSGTDFTLTISSLQPEDFATYYCQQSISIPRTFGQGTKVEVK
notes: as for B1
B18: M29-D09 (Fab, V domains shown)
VH: EVQLLESGGGLVQPGGSLRLSCAASGFTFSWYTMVWVRQAPGKGLEWVSYIYPSGGATFYADSVKGRFTISRDNSKNTLYLQMNSLRAEDTAVYYCAMGSYDYIWGFYSDHWGQGTLVTVSS
VL: QSALTQPPTVSVSPGQTARITCSGNKLGDKYVAWYQQKPGQSPMLVIYQDTKRPSRVSERFSGSNSANTATLSISGTQALDEADYYCQAWDSSIVIFGGGTRLTVL
notes: Printed HC runs from VH into the start of CH1; also called 559A-M29-D09; 559A-M0029-D09

T1 sequence (P03952 20-390, chain 1 of 2): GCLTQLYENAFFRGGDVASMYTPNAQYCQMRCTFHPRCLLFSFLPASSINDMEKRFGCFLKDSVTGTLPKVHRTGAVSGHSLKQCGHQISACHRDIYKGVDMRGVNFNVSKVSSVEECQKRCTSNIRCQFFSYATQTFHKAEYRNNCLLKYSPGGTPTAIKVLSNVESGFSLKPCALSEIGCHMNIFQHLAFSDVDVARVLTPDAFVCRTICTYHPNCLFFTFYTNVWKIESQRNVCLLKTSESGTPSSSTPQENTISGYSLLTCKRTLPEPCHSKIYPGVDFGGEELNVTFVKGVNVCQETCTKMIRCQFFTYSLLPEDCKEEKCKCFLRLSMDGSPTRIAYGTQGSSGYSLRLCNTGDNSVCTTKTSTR
T1 sequence (P03952 391-638, chain 2 of 2): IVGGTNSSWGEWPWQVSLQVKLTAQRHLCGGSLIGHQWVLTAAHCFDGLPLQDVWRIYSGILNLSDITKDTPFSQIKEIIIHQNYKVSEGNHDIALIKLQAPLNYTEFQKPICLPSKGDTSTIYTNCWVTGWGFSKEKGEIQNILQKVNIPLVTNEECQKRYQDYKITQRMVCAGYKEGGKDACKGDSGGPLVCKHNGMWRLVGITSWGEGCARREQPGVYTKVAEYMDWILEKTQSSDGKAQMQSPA

One assay has as its target T1, human plasma kallikrein (human, UniProt P03952 20-390; P03952 391-638).
T1 construct: also called pKal; human pKal
The assay is described as follows: apparent inhibition constant (Ki,app) against human pKal, enzyme inhibition.
Take B1: the Ki is 0.3 nM.
Consider B2, for which the Ki was 16 nM.
For the molecule B3, the Ki is less than 100 nM.
On to B4, for which the Ki is less than 100 nM.
B5: the Ki amounted to 17 nM.
For B6, the Ki stood at 2.2 nM.
B7: the Ki stood at 4.8 nM.
B8: the Ki is less than 100 nM.
Turning to B9, the Ki amounted to 14 nM.
B10: the Ki stood at 13 nM.
In the case of B11, the Ki was 0.79 nM.
Regarding B12, the Ki came out at 79 nM.
Consider B13, for which the Ki is 2.9 nM.
For the molecule B14, the Ki turned out to be 1.1 nM.
Turning to B15, the Ki worked out at 11 nM.
For B16, the Ki was determined as 0.2 nM.
Same read-out and setting: under B17 stands less than 100 nM; under B18, 0.7 nM.

The next assay addresses T1, human plasma kallikrein. The assay is described as follows: ELISA, biotinylated plasma kallikrein coated on microtiter plate, signal divided by streptavidin background. The text has this:
Abbreviations used: "T/B" is the ELISA signal obtained using of the "target" (biotinylated plasma kallikrein) divided by the ELISA signal of the "background" (streptavidin); both of which were coated on microtiter plates. "nd" is not determined. The symbol "q" refers to the amber suppressible stop codon (TAG), which is translated as glutamine (Q) in strains of *E. coli* such as the TG1 cells that were used to express the Fab fragments.
On the technique in general: An ELISA detects its analyte on a solid surface through an enzyme-linked reagent.
As for B1, the “Human pKal ELISA (T/B)” value was 41.8 ratio of ELISA signal on target to background (streptavidin).
B2: the “Human pKal ELISA (T/B)” value was 41.3 ratio of ELISA signal on target to background (streptavidin).
In the case of B3, the “Human pKal ELISA (T/B)” value is 2.4 ratio of ELISA signal on target to background (streptavidin).
For B4, the “Human pKal ELISA (T/B)” value was 11.2 ratio of ELISA signal on target to background (streptavidin).
As to B5, the “Human pKal ELISA (T/B)” value is 38.3 ratio of ELISA signal on target to background (streptavidin).
B6: the “Human pKal ELISA (T/B)” value was 49.6 ratio of ELISA signal on target to background (streptavidin).
As for B7, the “Human pKal ELISA (T/B)” value is 11.4 ratio of ELISA signal on target to background (streptavidin).
With B8, the “Human pKal ELISA (T/B)” value was 4 ratio of ELISA signal on target to background (streptavidin).
On the same count and under the same terms, with B9 the figure was 33.5 ratio of ELISA signal on target to background (streptavidin).
For the molecule B10, the “Human pKal ELISA (T/B)” value was 28 ratio of ELISA signal on target to background (streptavidin).
For B11, the “Human pKal ELISA (T/B)” value is 40 ratio of ELISA signal on target to background (streptavidin).
On the same count and under the same terms, with B12 the figure was 4.5 ratio of ELISA signal on target to background (streptavidin).
Turning to B13, the “Human pKal ELISA (T/B)” value is 11.1 ratio of ELISA signal on target to background (streptavidin).
Still for that read-out and setting: with B14 the figure was 6.2 ratio of ELISA signal on target to background (streptavidin).
Turning to B15, the “Human pKal ELISA (T/B)” value was 28.8 ratio of ELISA signal on target to background (streptavidin).
Turning to B16, the “Human pKal ELISA (T/B)” value is 29.9 ratio of ELISA signal on target to background (streptavidin).
The same measure, in the same setting: under B17 stands 19 ratio of ELISA signal on target to background (streptavidin).
As to B18, the “Human pKal ELISA (T/B)” value was 47.5 ratio of ELISA signal on target to background (streptavidin).
